Drawing on article PMC5159607, this text covers Km for one protein.

Substrate in this data set: Oc1ccc2c(c1)OC[C@@]1(O)c3ccc(O)cc3O[C@@H]21
The experiment in a line: HPLC prenyltransferase assay, recombinant yeast microsomes, Lineweaver-Burk. Type of data set: biochemical, Glycine max. As to conditions: 400 µM DMAPP, divalent cation required (Mg2+ preferred), 30 °C, 15 min.

B1: G2DT (PT7; ΔTP-PT7) (Glycine max) (protein)
chain: YKKKTQIECNILRSQQSSLNHHYKRIEGGATYQDCDKKYVVKAIPEPTFDSEPCASNPENVVDSAKKILDVFYHFCYPYSMIAIILCAISSSLLAVEKPSDISSSFLIGVLQALVPHLFVAVFANVVNQVFDYEIDKINKPYLPLASGQLSFTTAVFIAASLLIMSFWLSLVIGSWPLIWNVVLTSSVWNVYSINVPLLRWKRHPLLATICTISVWAFILPITFFLHMQTFVLKRPIVFPRSLIFYVVFMIFYSLGMALSKDISDVKGDKAYGIDTLAIRLGQKWVFWICIILFEMAFGVALLAGATSSYLWIKIVTGLGHAILASILLYQAKSIYLSNKVSTISFYMLIWKLLYAAYFLMALIR
For the protein B1, the Km was 183 µM.
